Literature values in publication PMC7876049.

Molecular target: CYK4 (Homo sapiens) (UniProt Q9H0H5)
Sequence of UniProt Q9H0H5 (Q9H0H5 whole entry): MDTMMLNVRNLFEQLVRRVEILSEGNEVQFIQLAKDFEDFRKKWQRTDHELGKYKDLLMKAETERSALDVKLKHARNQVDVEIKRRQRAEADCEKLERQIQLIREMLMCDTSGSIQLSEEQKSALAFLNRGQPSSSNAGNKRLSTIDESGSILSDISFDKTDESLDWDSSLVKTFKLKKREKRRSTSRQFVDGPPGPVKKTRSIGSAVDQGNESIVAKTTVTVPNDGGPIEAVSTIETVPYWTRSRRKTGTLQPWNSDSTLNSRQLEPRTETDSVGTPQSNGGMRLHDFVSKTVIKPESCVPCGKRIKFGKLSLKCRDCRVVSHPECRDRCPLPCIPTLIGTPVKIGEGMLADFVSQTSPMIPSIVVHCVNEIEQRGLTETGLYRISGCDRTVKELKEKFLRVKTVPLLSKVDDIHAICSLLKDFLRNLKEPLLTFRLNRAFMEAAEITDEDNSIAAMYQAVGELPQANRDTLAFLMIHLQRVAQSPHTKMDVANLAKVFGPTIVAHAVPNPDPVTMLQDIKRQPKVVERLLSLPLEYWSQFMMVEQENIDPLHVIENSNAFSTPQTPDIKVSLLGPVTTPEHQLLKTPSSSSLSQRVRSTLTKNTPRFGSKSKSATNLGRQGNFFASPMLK

Substance: MKLP1 (from UniProt Q02241)
- Kd: 7 nM
